The target in test [1] is Gag.FP: unprocessed HIV-1 Gag polyprotein carrying eCFP or eYFP between MA and CA, in immature HIV^eCFP/eYFP particles (HIV-1 NL4-3). Put plainly: FRET or BRET; stopped-flow; dual-labeled particles mixed with 0.05% TX-100 in PBS at 25°C, excitation 436 nm, long pass filter 515 nm; five to six traces averaged; single or double exponential fits of the FRET decay.
Test [2] addresses MA-CA.FP: uncleaved MA-CA Gag derivative carrying eCFP or eYFP, in HIV^eCFP/eYFP particles of the MA-CA cleavage site variant (HIV-1 NL4-3). Described as above.
The target in test [3] is MA-SP1.FP: uncleaved MA-CA-SP1 Gag derivative carrying eCFP or eYFP, in HIV^eCFP/eYFP particles of the MA-SP1 cleavage site variant (HIV-1 NL4-3). Description: FRET or BRET; cuvette-based; dual-labeled particles in PBS at 25°C, 0.05% TX-100 added at t = 0 to strip the lipid envelope; emission at 528 nm (excitation 433 nm) followed at 1 s resolution, or spectra after 15 min; normalized to the signal before detergent.

Test [4] has the same target. Put plainly: FRET or BRET; stopped-flow; dual-labeled particles mixed with 0.05% TX-100 in PBS at 25°C, excitation 436 nm, long pass filter 515 nm; five to six traces averaged; single or double exponential fits of the FRET decay. (In general: In BRET a luciferase serves as donor, and the signal depends on an acceptor being close.)
The target in test [5] is MA.FP: HIV-1 matrix protein (MA) carrying eCFP or eYFP, in mature HIV^eCFP/eYFP particles (HIV-1 NL4-3). The test is described as above.

In the case of “Gag.FP: unprocessed HIV-1 Gag polyprotein carrying eCFP or eYFP between MA and CA, in immature HIV^eCFP/eYFP particles (natural protein)”, the k1, rate constant of FRET decay (single exponential) in test [1] turned out to be 0.018 s⁻¹.

In test [2], “MA-CA.FP: uncleaved MA-CA Gag derivative carrying eCFP or eYFP, in HIV^eCFP/eYFP particles of the MA-CA cleavage site variant (domain or fragment)” had a k1, rate constant of FRET decay (fast phase, double exponential) of 0.127 s⁻¹ and a k2, rate constant of FRET decay (slow phase, double exponential) of 0.0082 s⁻¹.

“MA-SP1.FP: uncleaved MA-CA-SP1 Gag derivative carrying eCFP or eYFP, in HIV^eCFP/eYFP particles of the MA-SP1 cleavage site variant (domain or fragment)” returned a plateau of the FRET signal after detergent, % of the initial value in test [3] of 75%. For the same substance, in test [4], the k1, rate constant of FRET decay (fast phase, double exponential) came to 0.129 s⁻¹ and the k2, rate constant of FRET decay (slow phase, double exponential) is 0.0078 s⁻¹.

As to “MA.FP: HIV-1 matrix protein (MA) carrying eCFP or eYFP, in mature HIV^eCFP/eYFP particles (natural protein)”, the k1, rate constant of FRET decay (single exponential) in test [5] came out at 0.099 s⁻¹.

The values are drawn from paper PMC4051761.
